Data from paper PMC12548415.

Tests used:
Experiment in all cases: BLI; virus immobilised on APS probe (Gator Prime), PBS as running buffer; three concentrations (serial dilutions) of RDTfR in PBST (PBS, 0.05% Tween-20) applied; global fit, 1:1 binding model
[1] = target: rRDPV-16 virus (rescued from the infectious cDNA clone pRDPV-16 of raccoon dog parvovirus strain RDPV/CL/2016), capsid of VP2 (raccoon dog parvovirus, strain RDPV/CL/2016)
[2] = target: wild-type raccoon dog parvovirus strain RDPV/CL/2016, capsid of VP2 (raccoon dog parvovirus, strain RDPV/CL/2016)
[3] = target: wild-type raccoon dog parvovirus strain RDPV/FLD/2010, capsid of VP2 (raccoon dog parvovirus, strain RDPV/FLD/2010)

raccoon dog transferrin receptor ectodomain (recombinant RDTfR, from residue 121, C-terminal 6x His)
Kd [1]: 56.1 nM | koff [1]: 0.00306 s⁻¹ | kon [1]: 54500 M⁻¹ s⁻¹ | Kd [2]: 81.1 nM | Kd [3]: 103 nM
